Publication PMC4254802

Experiments:
Assay in all cases: cross-linking
[1] = molecular target: endogenous TACE of Cα cells (CHO cells that express TGF-α) (Chinese hamster (endogenous in Cα/CHO cells))
[2] = molecular target: endogenous ADAM10 of Cα cells (Chinese hamster (endogenous in Cα/CHO cells))
[3] = molecular target: TACE-B/ADAM10cyto (truncated human TACE with the cytoplasmic domain of ADAM10), Flag-tagged (human) (UniProt O14672)

endogenous TACE of Cα cells (CHO cells that express TGF-α) (enzyme)
stoichiometry N [1]: 2

endogenous ADAM10 of Cα cells (enzyme)
stoichiometry N [2]: 2

TACE-B/ADAM10cyto (truncated human TACE with the cytoplasmic domain of ADAM10), Flag-tagged (from UniProt O14672 694-748)
stoichiometry N [3]: 2
